Values of other authors as cited in US20260217837A1, “FGFR3 BINDING MOLECULES AND METHODS OF USE THEREOF” (Regeneron Pharmaceuticals, Inc., priority 2023, published 2026).
Positions count from the first letter of the chain named. Names and notes keep the numbering of the source.

B1: KE58: anti-FGFR3 IIIb and IIIc antibody of WO 2022/040560 A1; SEQ ID NO: 78/79 (antibody, V domains shown)
VH: EVQLQQSGPDLVKPGASVKISCKASGYTVTDYYMNWVKQSHGKSLEWIGDINPNNGVTTYNQKFKDKATLTVDKSSSTAYMELRSLTSEDSAVYYCAREEDFDGFDYWGQGTTLTVSS
VL: DIVMTQSHKFMSTSVGDRVSITCKASQDVSTGVAWYQQKPGQSPQLLIYWASTRHTGVPDRFTGSGSGTDYILTIRSVQAEDLALYYCQQHYSTPLTFGAGTKLELK
B2: MS-Pro-11: anti-FGFR3 Ig-like domain 3 antibody of WO 2002/102972 A2; SEQ ID NO: 30/31 (antibody, V domains shown)
VH: QVQLVQSGAEVKKPGASVKVSCKASGYTFTSYYMHWVRQAPGQGLEWMGWINPNSGGTNYAQKFQGRVTMTRDTSISTAYMELSSLRSEDTAVYYCARYYGSSLYHYVFGGFIDYWGQGTLVTVSS
VL: DIALTQPASVSGSPGQSITISCTGTSSDVGGYNYVSYQQHPGKAPKLMIYDVSNRPSGVSNRFSGSKSGNTASLTISGLQAEDEADYYCQSHHFYEVFGGGTKLTVLGQ
B3: KE35: anti-FGFR3 IIIb and IIIc antibody of WO 2022/040560 A1; SEQ ID NO: 74/75 (antibody, V domains shown)
VH: EVQLQQSGPELVKPGASVKMSCKASGYTFTDYNMHWVKQSHGKSLEWIGYINPNNGGTRYNQKFKGKATLTVNKSSSTAYMELRSLTSEDSAVYYCARERDYDGAMDYWGQGTSVTVSS
VL: DIQMTQSPSSLSASLGGKVTITCKASQDINKFIAWYQHKPGKGPRLLIHYTSTLQPGIPSRFSGSGSGRDYSFSISNLEPEDIATYYCLQYDNLLWTFGGGTKLEIK
B4: KE42: anti-FGFR3 IIIb and IIIc antibody of WO 2022/040560 A1; SEQ ID NO: 76/77 (antibody, V domains shown)
VH: B3 VH with E46Q, R59N, K63N, G66D, S77T, A105S, Y108F
VL: B3 VL with Y87F
B5: MS-Pro-59: anti-FGFR3 Ig-like domain 3 antibody of WO 2002/102972 A2; SEQ ID NO: 28/29 (antibody, V domains shown)
VH: QVQLQQSGPGLVKPSQTLSLTCAISGDSVSSNSAAWNWIRQSPGRGLEWLGRTYYRSKWYNDYAVSVKSRITINDTSKNQFSLQLNSVTPEDTAVYYCARSYYPDFDYWGQGTVTVSS
VL: DIELTQPPSVSVAPGQTARISCSGDALGDKYASWYQQKPGQAPVLVIYDDSDRPSGIPERFSGSNSGNTATLTISGTQAEDEADYYCQSYDGPDLWVFGGGTKLTVLGQ
B6: 184.6.58: anti-FGFR3 Ig-like domain 3 antibody of WO 2010/111367 A1 (aka R3Mab); SEQ ID NO: 65/66 (antibody, V domains shown)
VH: EVQLVESGGGLVQPGGSLRLSCAASGFTFTSTGISWVRQAPGKGLEWVARIYPTNGSTNYADSVKGRFTISADTSKNTAYLQMNSLRAEDTAVYYCARARTYGIYDLYVDYTEYVMDYWGQGTLV
VL: DIQMTQSPSSLSASVGDRVTITCRASQDVDISLAWYQQKPGKAPKLLIYSASFLYSGVPSRFSGSGSGTDFTLTISSLQPEDFATYYCQQGAGNPYTFGQGTKVEIKR
B7: 184.6.1.NS D30E: anti-FGFR3 Ig-like domain 3 antibody of WO 2010/111367 A1; SEQ ID NO: 63/69 (antibody, V domains shown)
VH: B6 VH with A49G, N55S
VL: B6 VL with D30E, I31T, G91S, A92T, N94H, Y96Q
B8: 184.6.62: anti-FGFR3 Ig-like domain 3 antibody of WO 2010/111367 A1; SEQ ID NO: 67/68 (antibody, V domains shown)
VH: B6 VH with T30S, S31T, T54L, N55Y, N59H
VL: B6 VL with D30S, I31T, S32A, L33V, G91T, A92Y, G93T, N94T, P95S, Y96L
B9: KE94: anti-FGFR3 IIIb and IIIc antibody of WO 2022/040560 A1; SEQ ID NO: 82/83 (antibody, V domains shown)
VH: QVQLQQSGAELVRPGASVTLSCKASGSTFTDFEIHWVKQTPVHGLEWIGAIDPETGGTAYNQKFKGKAILTAVKSSSTAYMGLRSLTSEDSAVYYCTRNYDGYSRTMDYWGQGTSVTVSS
VL: NIMMTQSPSSLAVSAGEKVTMSCKSSQSVLYSSNQKNYLAWYQQKPGQSPKLLIYWASTRESGVPDRFTGSGSGTDFSLSISSVQTEDLAVYYCHQYLSSYTFGGGTRLEMK
B10: KC18: anti-FGFR3 IIIb and IIIc antibody of WO 2022/040560 A1; SEQ ID NO: 72/73 (antibody, V domains shown)
VH: QVQLQQSGAELVRPGASVTLSCKASGDTFTDFEIHWVKQTPVHGLEWIGDIDPETGGTAYNQKFRGRAMLTADRSSSTAYMELRSLTSEDSAVYYCTRTYDGYPYAMDYWGQGTSVTVSS
VL: DIVMSQSPSSLAVSVGEKVTMSCKSSQSLLYSNNQKNYLAWYQQKPGQSPKLLIYWASTRESGVPDRFTGSGSGTDFTLTISSVKAEDLAVYYCQQYYSYRTFGGGTKLEIK
B11: KE63: anti-FGFR3 IIIb and IIIc antibody of WO 2022/040560 A1; SEQ ID NO: 80/81 (antibody, V domains shown)
VH: B9 VH with T30S, A50G, V73D, K74R, G82E, R105Q
VL: B9 VL with S78T, S80T, T86A, R108K
B12: B-701: anti-FGFR3 antibody of WO 2016/134234 A1; SEQ ID NO: 70/71 (antibody, V domains shown)
VH: EVQLVESGGGLVQPGGSLRLSCAASGFTFTSTGISWVRQAPGKGLEWVGRIYPTSGSTNYADSVKGRFTISADTSKNTAYLQMNSLRAEDTAVYYCARTYGIYDLYVDYTEYVMDYWGQGTLV
VL: B6 VL with I31T, Q37K, G91S, A92T, N94H, Y96Q
B13: FGA0002: anti-FGFR3 (S249C mutant) antibody of WO 2021/010326 A1; SEQ ID NO: 84/85 (antibody, V domains shown)
VH: QELVESGGGLVQPGGSLKLSCKASGIDFSSYGISWVRQAPGKGLEWIAYIVPGFGIRNYANSVKGRFTISSDNAQNTVFLQMTSLTASDTATYFCARVPQYASSSGYYLPFNLWGPGTLVTVSS
VL: ALVMTQTPSPVSAAVGGTVTINCQASEDIYYNLAWFQQKPGQPPKLLIYRASTLASGVPSRFSGSGSGTEFTLTISDVQCDDAATYYCLGVYTYISADGNAFGGGTEVVVK

System: FGFR3
Conditions: Exemplary FGFR3 D3 binding sequences; antibodies of cited PCT publications

Molecule	Activity
B1	Antagonistic
B2	Antagonistic
B3	Antagonistic
B4	Antagonistic
B5	Antagonistic
B6	Antagonistic
B7	Antagonistic
B8	Antagonistic
B9	Antagonistic
B10	Antagonistic
B11	Antagonistic

Same assay, conditions: Table T-1, exemplary FGFR3 parental antibodies of cited publications

Molecule	Activity
B1	Antagonistic
B2	Antagonistic
B3	Antagonistic
B4	Antagonistic
B5	Antagonistic
B6	Antagonistic
B12	Antagonistic
B7	Antagonistic
B8	Antagonistic
B13	Antagonistic
B9	Antagonistic
B10	Antagonistic
B11	Antagonistic
